This passage reports activity results from patent US20110014616.

What all share (experiment): cell_activity
The subject of data set [1] is CCR5-specific ZFN pair (synthetic construct). The conditions noted are these: K562, unsorted, Cel-1 assay; 37.5% after SSA sorting.
For data set [2], the system named is Factor IX-specific ZFN pair (synthetic construct). The conditions noted are these: K562, unsorted, Cel-1 assay; 40.79% after SSA sorting.
Data set [3] relates to WAS-specific ZFN pair (synthetic construct). The conditions noted are these: K562, Cel-1 assay, day 3.

For the substance CCR5 ZFN target site, the activity in data set [1] was 25 % NHEJ.

For Factor IX ZFN target site, in data set [2], the activity turned out to be 17.9 % NHEJ. Consider WAS ZFN target site, for which the activity in data set [3] turned out to be 17.9 % NHEJ.
